This is an account of results in paper PMC2722910.

This series has as its system CC(C)C[C@H](NC(=O)[C@H](CO)NC(=O)[C@H](C)NC(=O)[C@H](CCCNC(=N)N)NC(=O)[C@H](CCCNC(=N)N)NC(=O)[C@@H](N)CC(C)C)C(=O)NCC(=O)O. Kind of series: purified protein. Particulars: Mg2+, ATP.

The kcat is the number of substrate molecules converted per active site and unit of time at saturation. Take “cAMP-dependent kinase (PKA) catalytic subunit (Homo sapiens)”: the kcat was found to be 8.5 ± 0.5 s⁻¹.
